Assay results published in US8257949B2, “Self-priming polysialyltransferase” (National Research Council of Canada, priority 2006, dated 2012).

Assay: Comparison of PST-16 and PST-17 sialic acid polymerization, CE analysis
Type: biochemical
Excerpt: The dotted line represents PST-16; the solid line represents PST-17. Arrows indicate the positions of Lactose (lac), GD3, GQ4, and polysialylated products conjugated to more than four sialic acid residues. The amount of polysialic acid relative to all other sialylated species ([…] sialic acid moieties) is about 50% in for each reaction.
Sialylation of the starting material: (▪), +1 NeuAc; ( ? ), +2 NeuAc; (□), +3 NeuAc; ( ? ), 4 NeuAc; ( ? ), >4 NeuAc (▪). 6A is PST-16 with Lac-FCHASE substrate. 6B is PST-17 with Lac-FCHASE substrate. 6C is PST-16 with T-Ag-FCHASE substrate. 6D is PST-17 with T-Ag-FCHASE substrate.
A fusion of Cst-II from C. jejuni OH4384 and the E. coli PST protein (PST-16) was generated and compared to the and N. meningitidis fusion (PST-17). Enzymatic activities of the two fusion proteins were determined and compared. […] See, e.g., FIGS. 5 and 6.

B1: PST-16: fusion of Cst-II from C. jejuni OH4384 and the E. coli PST protein, SEQ ID NO: 15 (protein)
chain: MKKVIIAGNGPSLKEIDYSRLPNDFDVFRCNQFYFEDKYYLGKKCKAVFYNPSLFFEQYYTLKHLIQNQEYETELIMCSNYNQAHLENENFVKTFYDYFPDAHLGYDFFKQLKDFNAYFKFHEIYFNQRITSGVYMCAVAIALGYKEIYLSGIDFYQNGSSYAFDTKQKNLLKLAPNFKNDNSHYIGHSKNTDIKALEFLEKTYKIKLYCLCPNSLLANFIELAPNLNSNFIIQEKNNYTKDILIPSSEAYGKFSKNINFGGGHMIFDASLKKLRKLFVNPIGFFRDSWFFNSKNKAEELLSPLKIKSKNIFIISNLGQLKKAESFVQKFSKRSNYLIVLATEKNTEMPKIIVEQINNKLFSSYKVLFIPTFPNVFSLKKVIWFYNVYNYLVLNSKAKDAYFMSYAQHYAIFVYLFKKNNIRCSLIEEGTGTYKTEKENPVVNINFYSEIINSIILFHYPDLKFENVYGTYPILLKKKFNAQKFVEFKGAPSVKSSTRIDNVIHKYSITRDDIIYANQKYLIEHTLFADSLISILLRIDKPDNARIFIKPHPKEPKKNINAIQKAIKKAKCRDIILITEPDFLIEPVIKKAKIKHLIGLTSSSLVYAPLVSKRCQSYSIAPLMIKLCDNDKSQKGINTLRLHFDILKNFDNVKILSDDITSPSLHDKRIFLGE
consumption of the acceptor: consumed completely
formation of long sialic acid polymers (CE analysis): did not detect formation of long sialic acid polymers
amount of polysialic acid relative to all other sialylated species (Lac-FCHASE acceptor, FIG. 5): about 50%
